# What was measured:
# [1] = target: Trypanosoma brucei multi-aminoacyl-tRNA synthetase complex (MSC)-associated protein 3 (MCP3), wild type (Trypanosoma brucei); assay: SEC-MALS; 300 ug protein at 3 mg/mL in 100 uL; 30 mM Tris-HCl pH 8.0, 100 mM NaCl, 5 mM MgCl2, 2 mM DTT; incubated at 27°C for 1 h; Superdex 200 Increase 10/300 GL, 0.5 mL/min; no tRNA
# [2] = target: Trypanosoma brucei multi-aminoacyl-tRNA synthetase complex (MSC)-associated protein 3 (MCP3), wild type (Trypanosoma brucei); assay: ITC; dimer to monomers: 250 uM WT MCP3 in the syringe injected into buffer in the cell (50 mM glycylglycine pH 8.0, 300 mM NaCl, 2 mM DTE); 13 injections of 1 uL, 25°C
# [3] = tested on: WT MCP3 (Trypanosoma brucei); assay: ITC; details: 1 mM Mg2+; unmodified in vitro transcript; ITC: 20 mM MOPS pH 7.8, 100 mM NaCl, 2 mM DTE, 1 mM MgCl2, 25 C, 30 uM protein in cell, 300 uM tRNA in syringe; SEC-MALS: preincubation 27 C, run at 4 C …
# [4] = tested on: ΔN MCP3 (Trypanosoma brucei); assay: ITC; details: unmodified in vitro transcript; ITC: 20 mM MOPS pH 7.8, 100 mM NaCl, 2 mM DTE, 1 mM MgCl2, 25 C, 30 uM protein in cell, 300 uM tRNA in syringe; SEC-MALS: preincubation 27 C, run at 4 C …
Substance,stoichiometry N [1],Kd [2] [nM],Kd [3] [nM],Kd [4] [nM]
"Trypanosoma brucei multi-aminoacyl-tRNA synthetase complex (MSC)-associated protein 3 (MCP3), wild type (enzyme)",2,2600,,
tRNAAla,,,1120,
tRNAPro,,,1050,809
